{"source": "patent US20220000762A1", "about": "“COMPOSITIONS FOR TREATING OXIDATIVE STRESS-ASSOCIATED SKIN DISEASES AND SKIN AGEING AND DIAGNOSIS OF OXIDATIVE STRESS-ASSOCIATED SKIN DISEASES” (priority 2019, published 2022)", "molecules": {"B1": {"name": "RoxP: radical oxygenase of Propionibacterium acnes, secreted antioxidant protein of C. acnes; SEQ ID NO: 1 for strain KPA171202 (protein)", "chain": "MFVQIAASLAAASSIALGIPGAATPIDESQLPVGPQVSVTDSAQHTGPFAASSPLTITVKPGAPCVRADGYQESMVTRVLDDKGHQVWTGTFDESKLIGGTGLGTATFHVGSPAAAFNFHGSERTTYRTLSYCAYPHYVNGTRERLSQVSVKTFMVDPALN", "modifications": "Cutibacterium acnes"}}, "key": {"healthy subjects": {"system": "healthy subjects", "assay": "UVA/UVB-irradiation study in human subjects: skin color a* (erythema) by Chromameter", "type": "in vivo", "settings": "topical, 1.25 MED UV, n=7", "experimental": "The objective of this study was to assess the UV-protection potential of three compositions containing RoxP in 7 healthy subjects by measuring the antioxidative effect and skin erythema. Oxidative stress was induced by exposition to UVA- and UVB-light to the skin on the upper back. The anti-oxidative activity of the test products was evaluated by measurement of sebum lipid oxidization levels (concentration of squalene monohydroperoxide) of swab-samples from the skin surface. The potential was assessed after two applications of RoxP in comparison to water, an untreated control and one hydrophilic standard antioxidant (H1) after induction of a light sunburn (1.25 MED). […] Additionally, the UV-protection potential of the products was evaluated by measuring the produced erythema (Chromameter). […]\nErythema was evaluated (Chromameter) at t1=baseline before irradiation, t2=30 to 50 minutes after irradiation, and t3=16 to 24 hours after irradiation. Squalene monohydroperoxide (SQOOH) was quantified at 25 to 45 minutes after irradiation. […]\nOn Day 2, subjects returned to the Study Site 20±4 hours after irradiation. […] The reading of the MED was performed and the irradiation time for 1 MED was determined. The correct dose for the irradiation of test areas was calculated by multiplying the irradiation dose of 1 MED with the factor for irradiation (1.25). […]"}, "[1]": {"assay": "Deoxyribose (TBA-MDA) assay", "type": "biochemical", "settings": "2 mg/ml RoxP, 37° C., 1 h", "experimental": "Deoxyribose assay is a well-established method to measure generation of hydroxyl radicals in biological systems and for evaluating the ability of antioxidants to reduce .OH radical generation. Such assays are described for example in Gutteridge & Halliwell (Biochem J. 1988, vol. 253(3), 932-933) and references therein. In particular, deoxyribose incubated with H2O2 and Fe2^+ (or Fe3^+ plus a reductant) is degraded into products that can react to form thiobarbituric acid-malondialdehyde (classic TBA-MDA assay) chromogen. This reaction is driven by —OH radicals. A reduction in prevalence of .OH radicals will result in fewer formed complexes and lower absorbance.\nA reaction mixture containing 5 mM 2-deoxyribose, 100 μM FeCl3, 100 μM EDTA, 1 mM H2O2, and 7.6 μg/ml ascorbic acid in buffer A (20 mM KH2PO4—KOH, pH 7.4), including or not 2 mg/ml RoxP, in triplicate, was incubated at 37° C. for 1 h (total volume 1 ml). After incubation, 1% w/v TBA (thiobarbituric acid) in 50 mM NaOH, and 2-8% v/v TCA (trichloroacetic acid) was added, followed by incubation at 95° C. for 15 minutes, and reading of absorbance at 532 nm."}, "Phenantroline assay": {"assay": "Phenantroline assay", "type": "biochemical", "settings": "10 μg or 20 μg RoxP", "experimental": "Phenantroline chelates specifically Fe^2+ and generates absorbance at 550 nm.\nA reaction mixture containing 0.7 mM ammonium iron (II) sulfate hexahydrate (from 1.4 mM working solution in PBS) or 0.5 mM ammonium iron (III) sulfate dodecahydrate (from 1.0 mM working solution in PBS); and further containing 10 μg or 20 μg RoxP (from 2 mg/ml RoxP working solution in PBS) or equivalent volume of PBS as control; and further containing 0.75 mM phenatroline (from 5 mM working solution in PBS); total volume 200 μl; was incubated for 15 minutes at room temperature. Absorbance was read at 550 nm."}, "[2]": {"assay": "Lipid hydroperoxide assay in UV irradiated and non-irradiated plasma", "type": "biochemical", "settings": "300 μg RoxP in 500 μl blood, plasma both irradiated (UVA/UVB) and non-irradiated", "experimental": "Hydroperoxides react with Fe^2+ ions to produce Fe^3+ ions which are detected using thiocyanate ion as chromogen. Lower abundance of Fe^3+ ions results in lowered absorbance, indicating lower level of lipid hydroperoxides in irradiated plasma.\nBlood was collected in EDTA tubes. Samples containing 500 μl blood+150 μl RoxP (300 μg RoxP), or 500 μl blood+150 μl PBS, were subjected to irradiation:\nUVA—irradiation 3×5000 μJ/cm^2; tubes were rotated between irradiation steps; or\nControls having composition identical to the samples, but not irradiated, were included in the experiment.\nThe blood samples were centrifuged at 1000×g, plasma was collected and frozen at −80° C.\nLipid hydroperoxides were quantified using lipid hydroperoxide assay kit (Cayman Chemical, item no. Item No. 705002)."}, "[3]": {"assay": "RoxP interaction with coproporphyrin III (absorbance curves)", "type": "binding", "settings": "1 mg/ml RoxP (100 μl) with 50 μg Coproporphyrin", "experimental": "1 mg/ml RoxP (100 μl) was mixed with 50 μg Coproporphyrin (10 μl) and total volume was adjusted to 290 μl with PBS. Absorbance was measured at different wavelengths. The absorbance curves indicate binding of coproporphyrin III by RoxP (see FIG. 26)."}}, "data": [{"molecule": "B1", "values": [{"measurement": "increase of skin color a* (median)", "setting": "healthy subjects; during 24 hours, water control 6 units", "value": 3.4, "unit": "units"}, {"measurement": "erythema 30-50 min after UV irradiation", "setting": "healthy subjects", "value": "less erythrema than the water control"}, {"measurement": "absorbance at 532 nm (generation of .OH radicals)", "setting": "[1]", "value": "reduced"}, {"measurement": "reduction of Fe^3+ to Fe^2+ (absorbance at 550 nm)", "setting": "Phenantroline assay; 0.5 mM ammonium iron (III) sulfate, 15 minutes", "value": "reduced Fe^3+ to Fe^2+"}, {"measurement": "effect on reaction when only Fe^2+ was present", "setting": "Phenantroline assay; 0.7 mM ammonium iron (II) sulfate", "value": "did not affect"}, {"measurement": "lipid hydroperoxide levels", "setting": "[2]", "value": "reduced"}, {"measurement": "binding of coproporphyrin III", "setting": "[3]", "value": "binding"}]}]}
